These results are taken from publication PMC10238739, “Interaction with single-stranded DNA-binding protein modulates Escherichia coli RadD DNA repair activities” (The Journal of Biological Chemistry, 2023).

Some results are limits rather than exact numbers.

First the molecules themselves.
B1: Escherichia coli RadD, wild type (enzyme, E. coli)
chain: MIFTLRPYQQEAVDATLNHFRRHKTPAVIVLPTGAGKSLVIAELARLARGRVLVLAHVKELVAQNHAKYQALGLEADIFAAGLKRKESHGKVVFGSVQSVARNLDAFQGEFSLLIVDECHRIGDDEESQYQQILTHLTKVNPHLRLLGLTATPFRLGKGWIYQFHYHGMVRGDEKALFRDCIYELPLRYMIKHGYLTPPERLDMPVVQYDFSRLQAQSNGLFSEADLNRELKKQQRITPHIISQIMEFAATRKGVMIFAATVEHAKEIVGLLPAEDAALITGDTPGAERDVLIENFKAQRFRYLVNVAVLTTGFDAPHVDLIAILRPTESVSLYQQIVGRGLRLAPGKTDCLILDYAGNPHDLYAPEVGTPKGKSDNVPVQVFCPACGFANTFWGKTTADGTLIEHFGRRCQGWFEDDDGHREQCDFRFRFKNCPQCNAENDIAARRCRECDTVLVDPDDMLKAALRLKDALVLRCSGMSLQHGHDEKGEWLKITYYDEDGADVSERFRLQTPAQRTAFEQLFIRPHTRTPGIPLRWITAADILAQQALLRHPDFVVARMKGQYWQVREKVFDYEGRFRLAHELRG
B2: RadD R21E (enzyme)
chain: MIFTLRPYQQEAVDATLNHFERHKTPAVIVLPTGAGKSLVIAELARLARGRVLVLAHVKELVAQNHAKYQALGLEADIFAAGLKRKESHGKVVFGSVQSVARNLDAFQGEFSLLIVDECHRIGDDEESQYQQILTHLTKVNPHLRLLGLTATPFRLGKGWIYQFHYHGMVRGDEKALFRDCIYELPLRYMIKHGYLTPPERLDMPVVQYDFSRLQAQSNGLFSEADLNRELKKQQRITPHIISQIMEFAATRKGVMIFAATVEHAKEIVGLLPAEDAALITGDTPGAERDVLIENFKAQRFRYLVNVAVLTTGFDAPHVDLIAILRPTESVSLYQQIVGRGLRLAPGKTDCLILDYAGNPHDLYAPEVGTPKGKSDNVPVQVFCPACGFANTFWGKTTADGTLIEHFGRRCQGWFEDDDGHREQCDFRFRFKNCPQCNAENDIAARRCRECDTVLVDPDDMLKAALRLKDALVLRCSGMSLQHGHDEKGEWLKITYYDEDGADVSERFRLQTPAQRTAFEQLFIRPHTRTPGIPLRWITAADILAQQALLRHPDFVVARMKGQYWQVREKVFDYEGRFRLAHELRG
B3: RadD R49E (enzyme)
chain: MIFTLRPYQQEAVDATLNHFRRHKTPAVIVLPTGAGKSLVIAELARLAEGRVLVLAHVKELVAQNHAKYQALGLEADIFAAGLKRKESHGKVVFGSVQSVARNLDAFQGEFSLLIVDECHRIGDDEESQYQQILTHLTKVNPHLRLLGLTATPFRLGKGWIYQFHYHGMVRGDEKALFRDCIYELPLRYMIKHGYLTPPERLDMPVVQYDFSRLQAQSNGLFSEADLNRELKKQQRITPHIISQIMEFAATRKGVMIFAATVEHAKEIVGLLPAEDAALITGDTPGAERDVLIENFKAQRFRYLVNVAVLTTGFDAPHVDLIAILRPTESVSLYQQIVGRGLRLAPGKTDCLILDYAGNPHDLYAPEVGTPKGKSDNVPVQVFCPACGFANTFWGKTTADGTLIEHFGRRCQGWFEDDDGHREQCDFRFRFKNCPQCNAENDIAARRCRECDTVLVDPDDMLKAALRLKDALVLRCSGMSLQHGHDEKGEWLKITYYDEDGADVSERFRLQTPAQRTAFEQLFIRPHTRTPGIPLRWITAADILAQQALLRHPDFVVARMKGQYWQVREKVFDYEGRFRLAHELRG
B4: RadD R145E (enzyme)
chain: MIFTLRPYQQEAVDATLNHFRRHKTPAVIVLPTGAGKSLVIAELARLARGRVLVLAHVKELVAQNHAKYQALGLEADIFAAGLKRKESHGKVVFGSVQSVARNLDAFQGEFSLLIVDECHRIGDDEESQYQQILTHLTKVNPHLELLGLTATPFRLGKGWIYQFHYHGMVRGDEKALFRDCIYELPLRYMIKHGYLTPPERLDMPVVQYDFSRLQAQSNGLFSEADLNRELKKQQRITPHIISQIMEFAATRKGVMIFAATVEHAKEIVGLLPAEDAALITGDTPGAERDVLIENFKAQRFRYLVNVAVLTTGFDAPHVDLIAILRPTESVSLYQQIVGRGLRLAPGKTDCLILDYAGNPHDLYAPEVGTPKGKSDNVPVQVFCPACGFANTFWGKTTADGTLIEHFGRRCQGWFEDDDGHREQCDFRFRFKNCPQCNAENDIAARRCRECDTVLVDPDDMLKAALRLKDALVLRCSGMSLQHGHDEKGEWLKITYYDEDGADVSERFRLQTPAQRTAFEQLFIRPHTRTPGIPLRWITAADILAQQALLRHPDFVVARMKGQYWQVREKVFDYEGRFRLAHELRG
B5: RadD (Escherichia coli K-12; R49E) (protein)
chain: MIFTLRPYQQEAVDATLNHFRRHKTPAVIVLPTGAGKSLVIAELARLAEGRVLVLAHVKELVAQNHAKYQALGLEADIFAAGLKRKESHGKVVFGSVQSVARNLDAFQGEFSLLIVDECHRIGDDEESQYQQILTHLTKVNPHLRLLGLTATPFRLGKGWIYQFHYHGMVRGDEKALFRDCIYELPLRYMIKHGYLTPPERLDMPVVQYDFSRLQAQSNGLFSEADLNRELKKQQRITPHIISQIMEFAATRKGVMIFAATVEHAKEIVGLLPAEDAALITGDTPGAERDVLIENFKAQRFRYLVNVAVLTTGFDAPHVDLIAILRPTESVSLYQQIVGRGLRLAPGKTDCLILDYAGNPHDLYAPEVGTPKGKSDNVPVQVFCPACGFANTFWGKTTADGTLIEHFGRRCQGWFEDDDGHREQCDFRFRFKNCPQCNAENDIAARRCRECDTVLVDPDDMLKAALRLKDALVLRCSGMSLQHGHDEKGEWLKITYYDEDGADVSERFRLQTPAQRTAFEQLFIRPHTRTPGIPLRWITAADILAQQALLRHPDFVVARMKGQYWQVREKVFDYEGRFRLAHELRG
notes: full-length, untagged; expressed from plasmid pEAW724 in E. coli STL2669/pT7pol26; conventional chromatography
B6: RadD (Escherichia coli K-12; R21E) (protein)
chain: MIFTLRPYQQEAVDATLNHFERHKTPAVIVLPTGAGKSLVIAELARLARGRVLVLAHVKELVAQNHAKYQALGLEADIFAAGLKRKESHGKVVFGSVQSVARNLDAFQGEFSLLIVDECHRIGDDEESQYQQILTHLTKVNPHLRLLGLTATPFRLGKGWIYQFHYHGMVRGDEKALFRDCIYELPLRYMIKHGYLTPPERLDMPVVQYDFSRLQAQSNGLFSEADLNRELKKQQRITPHIISQIMEFAATRKGVMIFAATVEHAKEIVGLLPAEDAALITGDTPGAERDVLIENFKAQRFRYLVNVAVLTTGFDAPHVDLIAILRPTESVSLYQQIVGRGLRLAPGKTDCLILDYAGNPHDLYAPEVGTPKGKSDNVPVQVFCPACGFANTFWGKTTADGTLIEHFGRRCQGWFEDDDGHREQCDFRFRFKNCPQCNAENDIAARRCRECDTVLVDPDDMLKAALRLKDALVLRCSGMSLQHGHDEKGEWLKITYYDEDGADVSERFRLQTPAQRTAFEQLFIRPHTRTPGIPLRWITAADILAQQALLRHPDFVVARMKGQYWQVREKVFDYEGRFRLAHELRG
notes: as for B5
B7: RadD (Escherichia coli K-12; R145E) (protein)
chain: MIFTLRPYQQEAVDATLNHFRRHKTPAVIVLPTGAGKSLVIAELARLARGRVLVLAHVKELVAQNHAKYQALGLEADIFAAGLKRKESHGKVVFGSVQSVARNLDAFQGEFSLLIVDECHRIGDDEESQYQQILTHLTKVNPHLELLGLTATPFRLGKGWIYQFHYHGMVRGDEKALFRDCIYELPLRYMIKHGYLTPPERLDMPVVQYDFSRLQAQSNGLFSEADLNRELKKQQRITPHIISQIMEFAATRKGVMIFAATVEHAKEIVGLLPAEDAALITGDTPGAERDVLIENFKAQRFRYLVNVAVLTTGFDAPHVDLIAILRPTESVSLYQQIVGRGLRLAPGKTDCLILDYAGNPHDLYAPEVGTPKGKSDNVPVQVFCPACGFANTFWGKTTADGTLIEHFGRRCQGWFEDDDGHREQCDFRFRFKNCPQCNAENDIAARRCRECDTVLVDPDDMLKAALRLKDALVLRCSGMSLQHGHDEKGEWLKITYYDEDGADVSERFRLQTPAQRTAFEQLFIRPHTRTPGIPLRWITAADILAQQALLRHPDFVVARMKGQYWQVREKVFDYEGRFRLAHELRG
notes: as for B5
B8: RadD (Escherichia coli K-12) (protein)
chain: MIFTLRPYQQEAVDATLNHFRRHKTPAVIVLPTGAGKSLVIAELARLARGRVLVLAHVKELVAQNHAKYQALGLEADIFAAGLKRKESHGKVVFGSVQSVARNLDAFQGEFSLLIVDECHRIGDDEESQYQQILTHLTKVNPHLRLLGLTATPFRLGKGWIYQFHYHGMVRGDEKALFRDCIYELPLRYMIKHGYLTPPERLDMPVVQYDFSRLQAQSNGLFSEADLNRELKKQQRITPHIISQIMEFAATRKGVMIFAATVEHAKEIVGLLPAEDAALITGDTPGAERDVLIENFKAQRFRYLVNVAVLTTGFDAPHVDLIAILRPTESVSLYQQIVGRGLRLAPGKTDCLILDYAGNPHDLYAPEVGTPKGKSDNVPVQVFCPACGFANTFWGKTTADGTLIEHFGRRCQGWFEDDDGHREQCDFRFRFKNCPQCNAENDIAARRCRECDTVLVDPDDMLKAALRLKDALVLRCSGMSLQHGHDEKGEWLKITYYDEDGADVSERFRLQTPAQRTAFEQLFIRPHTRTPGIPLRWITAADILAQQALLRHPDFVVARMKGQYWQVREKVFDYEGRFRLAHELRG
notes: as for B5

The first series addresses FAM labeled SSB C-terminal peptide … (E. coli). The series can be described thus: fluorescence polarisation; fluorescence anisotropy; 10 nM 5-FAM SSB C-terminal peptide, RadD or variant titrated up to 30 μM; 25 mM Tris-acetate pH 7.5, 200 mM potassium glutamate, 10 mM magnesium acetate, 1 mM DTT, 0.1 μg/ml BSA; 15 min at room temperature; apparent KD, one-site fit.
Conditions: not given
As for B1, the Kd was determined as 5.4 µM.

On to B2, for which the Kd is above 30 µM.

As for B3, the Kd is above 30 µM.

In the case of B4, the Kd was above 30 µM.

For another series, the target named is Escherichia coli single-stranded DNA-binding protein (SSB), full-length (E. coli, UniProt P0AGE0 1-178). Briefly: cell-based or functional assay.
Escherichia coli single-stranded DNA-binding protein (SSB), full-length, sequence (P0AGE0 whole entry): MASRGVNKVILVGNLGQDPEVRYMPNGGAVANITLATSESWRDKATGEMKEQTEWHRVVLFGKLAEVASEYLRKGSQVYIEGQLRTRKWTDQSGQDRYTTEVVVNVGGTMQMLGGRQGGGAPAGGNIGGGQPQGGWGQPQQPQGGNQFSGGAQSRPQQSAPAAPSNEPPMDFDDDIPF
Conditions: not given
For the molecule B1, the “ATPase rate of 200 nM RadD on titration of SSB from 0 to 40 μM” value was around 3 fold.

Substrate in another series: Nc1ncnc2c1ncn2[C@@H]1O[C@H](COP(=O)(O)OP(=O)(O)OP(=O)(O)O)[C@@H](O)[C@H]1O
Briefly: coupled spectrophotometric ATPase assay (NADH oxidation). The format is biochemical, Escherichia coli. As to conditions: no SSB, no DNA, 200 nM RadD, 10 mM Mg acetate, 200 mM K glutamate, pH 7.5, 37 °C. From the text:
coupled spectrophotometric ATPase assay (NADH oxidation) on RadD
In the case of B5, the Km was 464 ± 44 µM and the Vmax worked out at 51 µM/min.

In the case of B6, the Km was determined as 654 ± 52 µM and the Vmax turned out to be 42.3 µM/min.

As to B7, the Km amounted to 698 ± 75 µM and the Vmax was 28.4 µM/min.

In the case of B8, the Km turned out to be 640 ± 76 µM and the Vmax was 29.4 µM/min.
